Data as given in patent US20110275057A1.
Each block holds one substance with its values, some of them ahead of it.

Key:
[1] = target: Protein Kinase A catalytic subunit (bos taurus) (UniProt P00517); test: cell-based or functional assay
[2] = target: Protein Kinase A catalytic subunit (bos taurus) (UniProt P00517); test: holoenzyme formation with CS; method and reference not described

kinase activity, fold increase on addition of cAMP to the chimera holoenzyme, batch of FIG. 17a [1]: 3 fold | kinase activity, fold increase on addition of cAMP to the chimera holoenzyme, second batch (FIG. 17b) [1]: 2 fold | γcAMP (case γDNA<γcAMP) [1]: 2.3 fold | γcAMP (increase in activity by cAMP; case γDNA≧γcAMP) [1]: 2.6 fold | decrease in associating with the CS to form the holoenzyme [2]: 20%
Substance: RIα-DNA chimera: PKA regulatory subunit (Ser 145→Cys; Gly 235→Cys) with a single stranded DNA 60 mer coupled to the two Cys residues (from UniProt Q9DBC7 1-381)

kinase activity (Luciferase assay, ATP disappearance), fold increase over the ss chimera holoenzyme, batch of FIG. 17a [1]: 2 fold | kinase activity, increase over the ss chimera holoenzyme, second synthesis batch (FIG. 17b) [1]: 50% | γDNA (increase in activity by the complementary DNA, corrected for the yield; case γDNA≧γcAMP) [1]: 2.7 fold
Substance: RIα-DNA chimera hybridized with the complementary DNA 60 mer (ds chimera, under mechanical tension) (from UniProt Q9DBC7 1-381)

inhibitory effects (on kinase activity) relative to the wild type RS [1]: > 80% | kinase activity, fold increase on addition of cAMP to the holoenzyme built with the Cys mutant without DNA (FIG. 17b) [1]: 3 fold
Substance: Protein Kinase A regulatory subunit (RIα isomer), double Cys mutant (Ser 145→Cys; Gly 235→Cys), no DNA coupled (from UniProt Q9DBC7 1-381)
